This note sets out measurements from publication PMC4001774.

This test has as its target CaM-GST on Sepharose beads (UniProt P0DP23). Put plainly: pull-down.

A value given as a limit tells only on which side of the number the result lay.

Chain of human Ano1(ac) (natural protein) (Q5XXA6 whole entry): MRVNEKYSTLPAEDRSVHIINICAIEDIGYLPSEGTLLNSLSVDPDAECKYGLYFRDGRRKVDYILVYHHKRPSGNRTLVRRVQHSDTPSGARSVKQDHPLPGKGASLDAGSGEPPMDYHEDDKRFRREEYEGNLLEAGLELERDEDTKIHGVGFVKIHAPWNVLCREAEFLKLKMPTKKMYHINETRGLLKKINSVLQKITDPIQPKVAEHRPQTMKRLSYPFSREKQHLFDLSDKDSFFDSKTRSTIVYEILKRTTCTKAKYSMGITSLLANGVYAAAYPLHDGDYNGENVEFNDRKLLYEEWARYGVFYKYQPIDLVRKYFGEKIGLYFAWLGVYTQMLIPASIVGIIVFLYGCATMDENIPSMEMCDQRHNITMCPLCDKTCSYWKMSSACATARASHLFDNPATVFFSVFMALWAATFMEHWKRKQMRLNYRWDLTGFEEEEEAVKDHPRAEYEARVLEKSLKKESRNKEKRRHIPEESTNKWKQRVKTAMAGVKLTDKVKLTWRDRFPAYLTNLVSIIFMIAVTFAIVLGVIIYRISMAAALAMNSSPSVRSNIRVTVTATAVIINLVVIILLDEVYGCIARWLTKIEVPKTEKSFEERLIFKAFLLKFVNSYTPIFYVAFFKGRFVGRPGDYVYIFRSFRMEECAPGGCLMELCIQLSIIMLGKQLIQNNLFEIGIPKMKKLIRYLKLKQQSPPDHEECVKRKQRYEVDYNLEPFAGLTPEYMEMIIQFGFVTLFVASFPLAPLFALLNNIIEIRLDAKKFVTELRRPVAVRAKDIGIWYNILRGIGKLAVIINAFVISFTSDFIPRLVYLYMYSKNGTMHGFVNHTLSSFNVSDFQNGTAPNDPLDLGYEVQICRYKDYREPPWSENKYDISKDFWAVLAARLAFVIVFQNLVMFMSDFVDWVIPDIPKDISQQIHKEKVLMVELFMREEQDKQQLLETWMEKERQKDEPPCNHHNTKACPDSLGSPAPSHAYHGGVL
Chain of CaMKIIα-Venus (P11275 whole entry): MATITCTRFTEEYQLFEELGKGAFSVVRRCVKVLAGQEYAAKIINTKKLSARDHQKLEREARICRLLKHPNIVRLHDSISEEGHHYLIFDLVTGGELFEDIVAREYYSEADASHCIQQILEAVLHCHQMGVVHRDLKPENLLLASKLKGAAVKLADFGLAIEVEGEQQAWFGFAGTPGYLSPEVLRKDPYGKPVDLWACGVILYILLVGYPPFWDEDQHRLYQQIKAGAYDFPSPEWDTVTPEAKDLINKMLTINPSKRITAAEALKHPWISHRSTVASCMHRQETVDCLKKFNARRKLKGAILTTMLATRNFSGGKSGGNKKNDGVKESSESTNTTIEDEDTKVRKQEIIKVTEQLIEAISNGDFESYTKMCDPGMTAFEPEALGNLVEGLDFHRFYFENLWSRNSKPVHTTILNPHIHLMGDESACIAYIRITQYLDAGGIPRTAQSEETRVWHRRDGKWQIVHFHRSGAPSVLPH
Chain of mAno1-FLAG(3X) (Q8BHY3 whole entry): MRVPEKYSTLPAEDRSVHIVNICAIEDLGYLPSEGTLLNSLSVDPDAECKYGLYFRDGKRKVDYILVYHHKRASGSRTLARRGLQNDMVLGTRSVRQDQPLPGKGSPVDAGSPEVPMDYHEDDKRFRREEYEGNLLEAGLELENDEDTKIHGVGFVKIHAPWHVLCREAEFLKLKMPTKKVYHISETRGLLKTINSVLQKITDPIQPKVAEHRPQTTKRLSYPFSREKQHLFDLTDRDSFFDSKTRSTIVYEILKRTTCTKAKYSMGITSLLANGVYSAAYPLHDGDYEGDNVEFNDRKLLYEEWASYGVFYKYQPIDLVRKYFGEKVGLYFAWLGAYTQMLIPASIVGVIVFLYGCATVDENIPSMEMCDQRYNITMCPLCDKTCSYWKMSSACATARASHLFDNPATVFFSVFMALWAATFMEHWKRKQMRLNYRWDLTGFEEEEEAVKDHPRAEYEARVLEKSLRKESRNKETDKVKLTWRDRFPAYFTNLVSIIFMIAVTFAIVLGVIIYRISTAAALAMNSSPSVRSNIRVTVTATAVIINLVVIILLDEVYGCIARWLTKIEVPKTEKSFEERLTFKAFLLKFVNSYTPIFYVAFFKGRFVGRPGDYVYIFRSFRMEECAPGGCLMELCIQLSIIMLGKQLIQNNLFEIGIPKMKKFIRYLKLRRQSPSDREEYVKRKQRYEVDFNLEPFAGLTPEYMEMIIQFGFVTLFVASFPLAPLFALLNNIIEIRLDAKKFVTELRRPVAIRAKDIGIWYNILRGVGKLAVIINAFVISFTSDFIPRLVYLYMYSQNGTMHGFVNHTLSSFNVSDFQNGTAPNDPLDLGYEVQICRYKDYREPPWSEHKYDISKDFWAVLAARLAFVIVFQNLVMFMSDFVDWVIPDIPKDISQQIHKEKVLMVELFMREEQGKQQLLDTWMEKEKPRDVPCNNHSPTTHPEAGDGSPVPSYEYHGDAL

As for “CaMKIIα-Venus (from UniProt P11275 1-478) (enzyme)”, the fold bound with Ca2+ over without Ca2+ is 10 fold and the percent of the protein in the lysate that bound was 100%.

In turn, human Ano1(ac) (natural protein) came in with a fold bound with Ca2+ over without Ca2+ of 2 fold and a percent of the protein in the lysate that bound of less than 1%.

In the case of “mAno1-FLAG(3X) (from UniProt Q8BHY3 1-960) (natural protein)”, the percent of the protein in the lysate that bound was less than 1%.
